Results taken from publication doi:10.1101/335232 (bioRxiv, 2018).

Biological target: the molecule itself
Experiment: SEC-MALS

B1: Human apolipoprotein-D (apoD) from breast cyst fluid (natural protein, UniProt P05090 21-189, looked up)
chain: QAFHLGKCPNPPVQENFDVNKYLGRWYEIEKIPTTFENGRCIQANYSLMENGKIKVLNQELRADGTVNQIEGEATPVNLTEPAKLEVKFSWFMPSAPYWILATDYENYALVYSCTCIIQLFHVDFAWILARNPNLPPETVDSLKNILTSNNIDVKKMTVTDQVNCPKLS
modifications: N-linked glycosylation at N45 and N78 (mature numbering)
  stoichiometry N: 4
